Several values for one entry are separate records, joined by “and”; a condition that tells them apart may be missing. Equal entries are not always repeated.
Tests used:
[1] = target: fluorescein-labelled Pdcd4 N-terminal domain (residues 1-156) (human) (UniProt Q53EL6); assay: fluorescence polarisation; fluorescence anisotropy binding assay: 20 nM FL-Pdcd4-NTD, 40S titrated, with or without eIFs (1 uM eIFs 1, 1A, 5, 550 nM eIF2-TC and eIF3); 20 mM Tris-acetate pH 7.5, 70 mM KCl, 2 mM MgCl2, 0.1 mM spermidine, 1 mM DTT, 10% glycerol, 0.1 mg/ml BSA, 0.5 mM ATP-Mg; 37 C 10 min, then over 20 min at room temperature; fraction bound fitted with a quadratic equation
[2] = target: 40S small ribosomal subunit (salt-washed) (human) (UniProt P23396); assay: fluorescence polarisation; anisotropy competition: 20 nM FL-Pdcd4-NTD + 50 nM 40S competed off by unlabeled Pdcd4 or its variants; 37 °C 10 min, then over 20 min at room temperature; buffer of the native gel assay
[3] = target: 40S small ribosomal subunit (salt-washed) (human) (UniProt P23396); assay: fluorescence polarisation; fluorescence anisotropy competition assay in solution: 20 nM FL-Pdcd4-NTD + 50 nM 40S competed off by 0-1000 nM unlabeled Pdcd4 or its variants; Kd of the labeled NTD set to 5 nM; same buffer as the native gel assay; 10 min at 37 C, then over 20 min at room temperature
[4] = target: 40S small ribosomal subunit (salt-washed) (human) (UniProt P23396); assay: fluorescence polarisation; anisotropy binding: 20 nM FL-Pdcd4-NTD with various amounts of 40S in the presence of saturating eIF1 and eIF1A
[5] = target: 43S pre-initiation complex (40S + eIFs 1, 1A, 5, 3j, eIF2-TC and eIF3) (human) (UniProt P23396); assay: native gel or EMSA; 100 nM fluorescein-labeled Pdcd4 with 250 nM 40S, 43S or 48S; 37 °C 10 min; 20 mM Tris-acetate pH 7.5, 70 mM KCl, 2 mM MgCl2, 0.1 mM spermidine, 1 mM DTT, 10% glycerol, 0.1 mg/ml BSA, 0.5 mM ATP-Mg; 1% agarose gel in THEM buffer, 4 °C
[6] = target: 43S pre-initiation complex (40S + eIFs 1, 1A, 5, 3j, eIF2-TC and eIF3) (human) (UniProt P23396); assay: fluorescence polarisation; anisotropy binding: 20 nM FL-Pdcd4-NTD with various amounts of 40S, in the absence or presence of 43S components (1 μM eIFs 1, 1A, 5, 550 nM eIF2-TC and eIF3); buffer of the native gel assay

For “40S subunit with saturating eIF1 and eIF1A (from UniProt P23396 1-243; P41567 1-113; P47813 1-144) (complex)”, the Kd [1] was 71 nM.

For “43S pre-initiation complex (40S with eIF1, eIF1A, eIF5, eIF2 ternary complex and eIF3) (from UniProt P23396 1-243; P41567 1-113; P47813 1-144; P55010 1-431; P55884 158-814; O75821 1-320; Q13347 1-325; O75822 1-258)”, the Kd [1] was 3000 nM.

“Pdcd4 (programmed cell death 4), wild type, residues 1-469 (from UniProt Q53EL6 1-469) (natural protein)” showed a Ki [2] of 23 nM.

In the case of “Pdcd4 K114A/K115A (from UniProt Q53EL6 1-469) (natural protein)”, the Ki [3] is reported as 1600 nM and 1380 nM and 1490 nM.

For “Pdcd4 V123A/W124A (from UniProt Q53EL6 1-469) (natural protein)”, the Ki [3] was 864 nM and 791 nM and 828 nM.

In the case of “Pdcd4-NTD (residues 1-156), unlabeled (from UniProt Q53EL6 1-156) (domain or fragment)”, the Ki [3] is reported as 21.2 nM and 20.3 nM and 20.1 nM and the Ki [2] is reported as 21 nM.

“fluorescein-labeled Pdcd4-NTD (FL-Pdcd4-NTD, residues 1-156) (from UniProt Q53EL6 1-156) (domain or fragment)” was tested, and the fold reduction in affinity (against the 40S alone) [4] was > 10 fold, the percent binding compared to the 40S lane [5] was < 20% and the fold reduction in affinity (against the 40S alone) [6] was > 100 fold.

With “fluorescently modified recombinant Pdcd4 (FL-Pdcd4), full length (from UniProt Q53EL6 1-469) (natural protein)” the percent binding compared to the 40S lane [5] was < 20%.

With “human 40S small ribosomal subunit (from UniProt P23396 1-243) (complex)” the Kd [1] was 5 nM.

In the case of “wild-type Pdcd4 (residues 1-469), unlabeled (from UniProt Q53EL6 1-469) (natural protein)”, the Ki [3] is reported as 24.7 nM and 21 nM and 23.3 nM.
